Assay results from patent publication US20110039770A1 (PHARMAGAP, published 2011).

What was measured:
[1] = target: T1, PKC-βII (purified isoform) (Homo sapiens (Human), UniProt P05771 2-621); experiment: competitive ELISA, coated purified PKC-βII, vs anti-PKC βII (SC-210); PRE 200 µM
T1 construct: also called PKC-beta II; PKC beta 2
Description: (§1) Greiner 96 well ELISA plates were coated with the appropriate PKC isoform diluted in PBSN (PBS with Calcium/Magnesium+0.05% Sodium azide w/w). 50 μL/well at 250 ng/mL was used. Control wells contained PBSN only. Plates were incubated overnight at 4° C.
(§2) The plates were washed 3 times with 200 μL of dH₂O per well, then 100 μL of blocking solution was added per well and the plate incubated for 1 h at 37° C. The washing steps with dH₂O were repeated and 50 μL of the appropriate PRE solution (PRE stock solution [20 mM in DMSO] diluted in PBSN) was added and the plate incubated for 1 h at room temperature.
(§3) 50 μL of 1:1000 dilution of Alkaline Phosphatase (AP) conjugated antibody (anti-rabbit for all except zeta, which was anti-goat) was then added and the plate incubated for 1 h at room temperature. Washing with dH₂O was then repeated. Finally, 100 μL of pNPP solution in pNPP buffer (2 mM MgCl₂, 100 mM Sodium bicarbonate in water, pH 9.8) was added to all wells and incubated for 8 minutes for α, βI, βII ε, and ζ, or for 15-20 mins for δ (until sufficient coloration is observed). The reaction was stopped by addition of Stop solution (2N NaOH) and the absorbance at 405 nm was read on a Galaxy Plate reader.

[2] = target: T2, PKC-βI (purified isoform) (Homo sapiens (Human), UniProt P05771 2-671); experiment: competitive ELISA, coated purified PKC-βI, vs anti-PKC βI (SC-209); PRE 50 µM
T2 construct: also called PKC-beta I; PKC beta 1

[3] = target: T3, PKC-ε (endogenous, IMR-32 lysate) (human, UniProt Q02156 1-737); experiment: WB competition Protocol B, IMR-32 extract, vs anti-PKC-ε Ab; PKC-ε Band 2; 20 µg peptide
T3 construct: Band 1 and Band 2 (alternate splicing variants, not identified further) are kept under one molecule; the band is named in the assay field of each row; also called PKC-epsilon; PKC-ε Band 1
T3 sequence (looked up): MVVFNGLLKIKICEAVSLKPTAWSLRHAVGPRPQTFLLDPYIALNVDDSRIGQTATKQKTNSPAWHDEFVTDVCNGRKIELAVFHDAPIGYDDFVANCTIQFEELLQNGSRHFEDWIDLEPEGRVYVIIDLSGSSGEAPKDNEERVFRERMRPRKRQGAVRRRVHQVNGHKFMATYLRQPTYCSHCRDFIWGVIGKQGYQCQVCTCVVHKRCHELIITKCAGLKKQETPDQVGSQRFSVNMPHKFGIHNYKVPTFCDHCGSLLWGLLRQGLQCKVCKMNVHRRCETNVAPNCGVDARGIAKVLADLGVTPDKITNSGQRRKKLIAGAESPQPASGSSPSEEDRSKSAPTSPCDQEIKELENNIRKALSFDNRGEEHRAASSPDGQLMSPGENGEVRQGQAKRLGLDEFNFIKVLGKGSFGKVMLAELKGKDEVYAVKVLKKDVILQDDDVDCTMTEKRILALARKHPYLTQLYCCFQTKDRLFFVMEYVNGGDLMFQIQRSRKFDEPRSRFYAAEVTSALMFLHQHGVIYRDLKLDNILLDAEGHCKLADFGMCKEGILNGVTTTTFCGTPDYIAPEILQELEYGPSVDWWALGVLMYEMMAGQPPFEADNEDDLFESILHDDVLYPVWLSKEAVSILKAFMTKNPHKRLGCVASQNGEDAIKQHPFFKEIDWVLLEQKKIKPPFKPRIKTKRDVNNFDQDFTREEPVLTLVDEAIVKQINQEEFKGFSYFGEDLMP
Description: (§4) The ability of the peptides PRE 2 and PRE 3 (see Table 4) to interfere with the binding of a PKC-α-specific polyclonal antibody (Santa Cruz Biotechnology, Inc.) to PKC-α was determined using a modified version of the protocol outlined above in which the test peptide was added directly to the cell extract prior to electrophoresis at a concentration of either 5× or 15× the concentration of the protein applied to each well of the gel for the Western blots (20 μg).
(§5) Peptides PRE 2, PRE 3 and PRE 4 (see Table 4) were tested for their ability to interfere with the binding of isoform-specific polyclonal antibodies (Santa Cruz Biotechnology, Inc.) to […] using the general protocol described in Example 3. Two bands, representing alternate splicing variants of PKC-ε, were identified on the Western blot using this anti-PKC-ε antibody.

[4] = target: T4, PKC-δ (purified isoform); experiment: competitive ELISA, coated purified PKC-δ, vs anti-PKC δ (SC-213); PRE 200 µM
T4 construct: also called PKC-delta
In short: (§6)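 Wells were coated overnight at 4 °C with purified PKC isoform at 250 ng/mL in PBSN, blocked 1 h at 37 °C, and then given PRE diluted in PBSN from a 20 mM DMSO stock for 1 h at room temperature. The AP-conjugated anti-rabbit antibody was developed with pNPP (pH 9.8) and read at 405 nm.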

[5] = target: T1, PKC-βII (purified isoform); experiment: competitive ELISA, coated purified PKC-βII, vs anti-PKC βII (SC-210); PRE 50 µM
Description: as §1, §2, §3

[6] = target: T3, PKC-ε (endogenous, IMR-32 lysate); experiment: WB competition Protocol B, IMR-32 extract, vs anti-PKC-ε Ab; PKC-ε Band 2; 100 µg peptide
Description: as §4, §5

[7] = target: T5, PKC-α (purified isoform) (Homo sapiens (Human), UniProt P17252 2-672); experiment: competitive ELISA, coated purified PKC-α, vs anti-PKC α (SC-208); PRE 100 µM
T5 construct: also called purified PKC-alpha; commercially purified PKC-alpha
In short: as §6

T1 sequence (P05771 other isoform, or with tags, fused parts or gaps limits assumed): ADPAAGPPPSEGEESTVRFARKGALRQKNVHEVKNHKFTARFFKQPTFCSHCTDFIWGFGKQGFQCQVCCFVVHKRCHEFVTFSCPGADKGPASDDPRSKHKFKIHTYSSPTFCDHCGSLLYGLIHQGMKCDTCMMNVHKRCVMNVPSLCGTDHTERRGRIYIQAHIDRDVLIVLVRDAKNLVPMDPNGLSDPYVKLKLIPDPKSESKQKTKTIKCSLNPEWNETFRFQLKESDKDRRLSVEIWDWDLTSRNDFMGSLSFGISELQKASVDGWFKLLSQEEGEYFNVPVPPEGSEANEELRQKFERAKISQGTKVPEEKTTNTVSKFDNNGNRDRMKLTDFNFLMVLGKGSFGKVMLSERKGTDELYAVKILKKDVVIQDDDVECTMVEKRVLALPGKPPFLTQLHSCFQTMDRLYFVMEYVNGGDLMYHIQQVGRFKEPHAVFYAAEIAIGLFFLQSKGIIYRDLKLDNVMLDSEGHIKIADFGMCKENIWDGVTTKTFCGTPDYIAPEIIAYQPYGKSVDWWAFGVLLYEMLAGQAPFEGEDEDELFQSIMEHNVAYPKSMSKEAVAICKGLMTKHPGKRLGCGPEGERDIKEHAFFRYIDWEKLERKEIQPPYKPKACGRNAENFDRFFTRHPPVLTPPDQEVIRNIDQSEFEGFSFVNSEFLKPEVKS
T2 sequence (P05771 2-671 limits assumed): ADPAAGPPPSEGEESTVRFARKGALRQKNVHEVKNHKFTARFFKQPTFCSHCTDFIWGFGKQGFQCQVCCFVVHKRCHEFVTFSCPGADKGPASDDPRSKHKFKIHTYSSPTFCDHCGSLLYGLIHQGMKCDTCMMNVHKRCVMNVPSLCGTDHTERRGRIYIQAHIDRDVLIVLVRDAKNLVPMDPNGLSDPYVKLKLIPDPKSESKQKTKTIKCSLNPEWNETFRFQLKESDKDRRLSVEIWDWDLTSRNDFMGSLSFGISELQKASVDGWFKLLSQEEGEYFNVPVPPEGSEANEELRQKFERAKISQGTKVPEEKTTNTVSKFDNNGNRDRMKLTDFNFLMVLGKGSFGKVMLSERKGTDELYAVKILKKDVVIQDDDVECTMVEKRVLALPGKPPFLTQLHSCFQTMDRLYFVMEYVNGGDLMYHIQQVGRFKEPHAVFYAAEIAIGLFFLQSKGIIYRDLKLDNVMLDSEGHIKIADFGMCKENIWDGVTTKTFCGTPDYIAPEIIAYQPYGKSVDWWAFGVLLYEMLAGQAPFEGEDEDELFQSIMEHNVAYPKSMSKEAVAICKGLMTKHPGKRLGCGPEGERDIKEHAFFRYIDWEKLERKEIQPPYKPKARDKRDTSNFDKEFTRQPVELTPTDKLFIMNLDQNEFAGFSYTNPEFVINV
T4 sequence (Q05655 whole entry, stated change not applied, canonical isoform): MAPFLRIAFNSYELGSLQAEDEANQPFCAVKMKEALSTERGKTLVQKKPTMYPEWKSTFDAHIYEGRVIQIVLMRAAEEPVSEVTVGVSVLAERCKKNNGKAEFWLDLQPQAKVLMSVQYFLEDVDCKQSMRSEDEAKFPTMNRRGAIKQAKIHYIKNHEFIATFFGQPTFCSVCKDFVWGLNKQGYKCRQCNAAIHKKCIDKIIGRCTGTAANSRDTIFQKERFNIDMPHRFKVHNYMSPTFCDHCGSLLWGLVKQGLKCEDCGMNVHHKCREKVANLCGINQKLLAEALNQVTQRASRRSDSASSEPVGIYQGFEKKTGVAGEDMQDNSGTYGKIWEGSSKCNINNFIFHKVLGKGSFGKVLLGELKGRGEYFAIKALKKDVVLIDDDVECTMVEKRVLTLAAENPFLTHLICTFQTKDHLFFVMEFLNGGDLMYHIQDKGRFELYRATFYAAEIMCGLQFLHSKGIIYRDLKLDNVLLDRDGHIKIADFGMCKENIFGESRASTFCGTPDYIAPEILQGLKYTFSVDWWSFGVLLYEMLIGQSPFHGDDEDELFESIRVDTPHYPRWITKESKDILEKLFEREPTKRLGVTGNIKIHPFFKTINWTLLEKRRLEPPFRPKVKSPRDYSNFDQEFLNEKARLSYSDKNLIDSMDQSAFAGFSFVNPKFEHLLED

Binder: Ac-KDAQNLIGISI-NH2 (also called peptide PRE 4) [PRE 4]
- relative binding capacity (100-%n, DMSO subtracted) [1]: 1.18%
- relative binding capacity (100-%n, DMSO subtracted) [2]: 6.02%
- Band Intensity [3]: 153
- Inhibition (%) [3]: 46.6%
- Relative Intensity (%) [3]: 53.3%
- relative binding capacity (100-%n, DMSO subtracted) [4]: 17.3%
- relative binding capacity (100-%n, DMSO subtracted) [5]: 2.69%
- Band Intensity [6]: 0
- Inhibition (%) [6]: 100%
- Relative Intensity (%) [6]: 0%
- relative binding capacity (100-%n, DMSO subtracted) [7]: 21.9%
